Numbering of substitutions follows the chain as printed.
T1: Monkey CD96-3xFlag (cyno-CD96-3xFLAG) (cynomolgus monkey)
T1 construct: Signal peptide marked only by lost underlining; also called cynomolgus CD96
T1 chain: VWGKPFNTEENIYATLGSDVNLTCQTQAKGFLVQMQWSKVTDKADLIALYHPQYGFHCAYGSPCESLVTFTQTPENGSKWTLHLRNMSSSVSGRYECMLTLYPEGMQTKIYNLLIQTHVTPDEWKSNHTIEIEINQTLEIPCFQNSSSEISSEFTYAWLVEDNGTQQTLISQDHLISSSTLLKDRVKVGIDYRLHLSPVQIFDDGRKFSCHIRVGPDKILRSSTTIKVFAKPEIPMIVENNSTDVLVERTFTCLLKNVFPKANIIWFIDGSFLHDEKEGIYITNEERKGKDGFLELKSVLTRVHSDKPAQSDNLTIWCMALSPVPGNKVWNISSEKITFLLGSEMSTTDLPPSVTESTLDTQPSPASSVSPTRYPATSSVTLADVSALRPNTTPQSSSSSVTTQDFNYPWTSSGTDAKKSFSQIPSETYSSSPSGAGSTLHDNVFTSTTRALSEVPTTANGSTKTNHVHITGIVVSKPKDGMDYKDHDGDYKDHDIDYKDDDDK

T2: CD96 extracellular region with His tag (CD96-His) (human, UniProt P40200 22-519)
T2 construct: also called CD96-ECD-His; Bio-CD96-His (biotin-labelled form)
T2 sequence: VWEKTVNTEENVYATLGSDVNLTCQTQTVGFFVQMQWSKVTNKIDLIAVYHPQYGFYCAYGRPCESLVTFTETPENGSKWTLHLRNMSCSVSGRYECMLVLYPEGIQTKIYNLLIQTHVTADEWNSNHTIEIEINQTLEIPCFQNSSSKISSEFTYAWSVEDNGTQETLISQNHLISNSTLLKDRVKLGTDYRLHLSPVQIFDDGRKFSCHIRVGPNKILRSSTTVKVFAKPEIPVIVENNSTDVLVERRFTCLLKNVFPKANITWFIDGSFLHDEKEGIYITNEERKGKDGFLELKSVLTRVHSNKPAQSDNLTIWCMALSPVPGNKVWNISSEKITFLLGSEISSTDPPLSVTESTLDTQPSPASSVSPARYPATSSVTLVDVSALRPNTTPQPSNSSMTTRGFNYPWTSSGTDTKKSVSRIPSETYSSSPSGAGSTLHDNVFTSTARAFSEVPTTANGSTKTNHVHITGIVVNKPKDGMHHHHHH

B1: ch1722 (antibody, human IgG4 S228P, kappa, V domains shown)
VH: QVQLQQPGAELVKPGTSVKLSCKASGNTFIDYWMHWVKQRPGQGLEWIGMLHPNSGTTSFNEKFKIKTTLTIDKSSSTAYMQLSSLTSEDSAIYYCASDYSGPFAYWGQGTLVTVSA
VL: QIVLTQSPGIMSAFPGEKVTMTCSASSSVNYIHWYQQKSGTSPKRWIFDTSKLASGVPARFSGSGSGTSYSLTISSMEAEDAATYYCQQWRSNPLTFGAGTKLELKR
notes: also called chi722; chimeric antibody corresponding to m1722
B2: ch1720 (antibody, human IgG4 S228P, kappa, V domains shown)
VH: EFQLQQSGPELVKPGASVKISCKASAYSLTDYNMNWVKQSNGKSLEWIGVINPSYGISSYNQKFKGKATLTVDQSSSTAYMHLNSLTSEDSAVYYCARQLRLPGYFDVWGTGTTVTVSS
VL: DIKMTQSPSSKNASLGERVTITCKASQDINSYLNWFQQKPGKSPKTLIYRASRLVDGVPSRFSGSGSGQDYSLTISSLEYEDMGIYYCLKYDEFPYTFGGGTKLEIKR
notes: also called chimeric antibody corresponding to m1720
B3: ch1718 (antibody, human IgG4 S228P, kappa, V domains shown)
VH: B2 VH with L29I, S58T, S59D, K63N, G66D, H82Q, R98I, T116I
VL: B2 VL with K11M, N12Y, S31N, S52N, L104V
notes: also called chimeric antibody corresponding to m1718
B4: h1721-003 (antibody, V domains shown)
VH: EVTLKESGPVLVKPTETLTLTCTVSGFSLSSYGVNWIRQPPGKALEWLGVIWGDGSTNYHSALISRLTISKDTSKSQVVLTLTNMDPVDTATYYCAKNYFYGSRYGYAMDSWGQGTTVTVSS
VL: DIQMTQSPSSLSASVGDRVTITCRASENIYSSLAWYQQKPGKAPKLLIYNAKTLIEGVPSRFSGSGSGTDFTLTISSLQPEDFATYYCQHHYGTPYTFGGGTKVEIK
notes: Only variable regions are tied to this name; also called M721-003
B5: h1719-014 (antibody, V domains shown)
VH: B4 VH with N35S, I37V, A44G, S56N, A62V, F100Y, A108P, M109L, S111Y
VL: DIQMTQSPSSVSASVGDRVTITCKATQDVGTAVAWYQQKPGKSPKLLIYWASTRHTGVPERFSGSGSGTDFTLTISSLQPEDFATYFCQQYGSSVLTFGGGTKVEIK
notes: Only variable regions are tied to this name; also called M719-014
B6: h1719-006 (antibody, V domains shown)
VH: B4 VH with N35S, I37V, A44G, S56N, A62V, Y99N, F100Y, A108P, S111Y
VL: B5 VL
notes: also called M719-006
B7: ch1719 (antibody, human IgG4 S228P, kappa, V domains shown)
VH: QVQLKESGPGLVAPSQSLSITCTVSGFSLISYGVSWVRQPPGKGLEWLGVIWGDGNTNYHSVLISRLSIRKDDSKSQVFLKLNSLQTDDTATYYCAKNNYYGSRYGYPMDYWGQGTSVTVSS
VL: DIVMTQSHKFMSTSVGDRVSITCKATQDVGTAVAWYQQKPGHSPKLLIYWASTRHTGVPERFTGSGSGTDFTLTIDNVQSEDLADYFCQQYGSSVLTFGAGTKVELRR
notes: also called chimeric antibody corresponding to m1719
B8: ch1721 (antibody, human IgG4 S228P, kappa, V domains shown)
VH: B7 VH with S35N, N56S, V62A, R70S, K81N, N99Y, Y100F, P108A, Y111S, T116I
VL: DIQMTQSPASLSAAVGETVTITCRASENIYSSLAWYQQKQGKSPQLLVYNAKTLIETVASRFSGSGSGTQYSLKINSLQPEDFGSFYCQHHYGTPYTFGGGTKLEIKR
notes: also called chimeric antibody corresponding to m1721
B9: h1722-010 (antibody, V domains shown)
VH: EVQLVQSGAEVKKPGSSVKVSCKASGGTFSDYWMHWVRQAPGQGLEWIGMLHPNSGTTSFNEKFKIRVTITADKSTSTAYMELSSLRSEDTAVYYCASDYSGPFAYWGQGTLVTVSS
VL: DIQLTQSPSSLSASVGDRVTITCSASSSVNYIHWYQQKPGKAPKRWIFDTSKLASGVPSRFSGSGSGTDYTLTISSLQPEDFATYYCQQWRSNPLTFGQGTKLEIK
notes: Only variable regions are tied to this name; also called M722-010
B10: h1722-006 (antibody, V domains shown)
VH: B9 VH
VL: B9 VL with L4M, F48Y, Y70F
notes: Only variable regions are tied to this name
B11: h1722-017 (antibody, V domains shown)
VH: B9 VH with N54K
VL: B9 VL
B12: h1722-018 (antibody, V domains shown)
VH: B9 VH with N54Q
VL: B9 VL
B13: h1718-012 (antibody, V domains shown)
VH: EVQLVQSGAEVKKPGASVKVSCKASGYTITDYNMNWVRQAPGQRLEWIGVINPSYGITDYNQNFKDRVTITVDTSASTAYMELSSLRSEDTAVYYCAIQLRLPGYFDVWGQGTTVTVSS
VL: DIQMTQSPSSLSASVGDRVTITCKASQDINQYLNWFQQKPGKAPKTLIYRANRLVDGVPSRFSGSGSGQDYTLTISSLQPEDFATYYCLKYDEFPYTFGGGTKVEIK
notes: as for B10

Key:
[1] = target: T1, Monkey CD96-3xFlag (cyno-CD96-3xFLAG); assay: ELISA, cyno-CD96-3xFLAG coated
Protocol: The cross-reactive binding capacity of the anti-CD96 antibody to monkey CD96 was tested by ELISA to determine the binding of the antibody to cynomolgus CD96 protein. The 3×FLAG-tagged CD96 fusion protein was used to coat the microtiter plate, and the intensity of the signal after adding with the antibody was used for evaluating the binding activity of the antibody and cynomolgus CD96. The specific experimental method is as follows:
cyno-CD96-3×FLAG with the amino acid sequence of SEQ ID NO: 95 prepared in Embodiment 4 was diluted to a concentration of 2 μg/ml with PBS buffer (Shanghai Yuanpei Biotechnology Co., Ltd. Cat No. B320), pH 7.4, added to a 96-well microtiter plate (Corning, Cat No. CLS3590-100EA) at a volume of 50 μl/well, and placed in an incubator at 37° C. for 2 hours. After discarding the liquid, 250 μl/well of 5% skim milk (BD, 232100) blocking solution diluted with PBS was added, and the plate was incubated in an incubator at 37° C. for 2.5 hours or at 4° C. overnight (16-18 hours) for blocking. After blocking, the blocking solution was discarded, and the plate was washed 4 times with PBST buffer (pH 7.4 PBS containing 0.05% tween-20). 50 μl/well of different concentrations of the antibodies to be tested (hybridoma purification antibody or humanized antibody) diluted with sample dilution was added, and the plate was incubated in an incubator at 37° C. for 1 hour. […] After washing the plate 4 times with PBST, 50 μl/well of TMB chromogenic substrate (KPL, Cat No. 52-00-03) was added, and the plate was incubated at room temperature for 5-15 minutes, followed by adding 50 μl/well of 1M H₂SO₄ to stop the reaction. The absorption value was read at 450 nm with a NOVOStar microplate reader, and the EC50 value of the binding of CD96 antibody to monkey CD96 was calculated (see Table 14).

[2] = target: T2, CD96 extracellular region with His tag …; assay: blocking cell ELISA: antibody premixed with Bio-CD96-His (0.5 ug/mL), binding to fixed CD155-CHO cells
Protocol: CD155-CHO cells (constructed by Shanghai Hengrui) were seeded in 96-well culture plates at a density of 9×10⁴/100 μL/well and cultured overnight. After aspirating the supernatant, the plate was washed once with PBS, 100 μl/well of immunostaining fixation solution (Biyuntian, Cat No. P0098) was added and fixed for one hour at room temperature, and the plate was washed three times with PBS. After discarding the liquid, 250 μl/well of 5% skim milk (BD, Cat No. 232100) blocking solution diluted with PBS was added, and the plate was blocked in an incubator at 37° C. for 2.5 hours. After blocking, the blocking solution was discarded, subsequently, the plate was washed 4 times with PBST buffer (pH 7.4 PBS containing 0.05% tween-20). 50 μl/well of antigen-antibody pre-incubation solution (gradient concentrations of the hybridoma antibody to be tested and CD96-Fc at a final concentration of 0.5 μg/mL were premixed at 37° C. for 30 minutes, or gradient concentrations of humanized antibody samples and Bio-CD96-His at a final concentration of 0.5 μg/mL were premixed at 37° C. for 30 minutes) (Biotin-labeled kit, Dongren Chemical, Cat No. LK03) was added, and the plate was incubated in an incubator at 37° C. for 2 hours. After incubation, the reaction solution in the microtiter plate was discarded, the plate was washed 4 times with PBST, and 50 μl/well of HRP-labeled goat anti-human secondary antibody (Jackson Immuno Research, Cat No. 109-035-003) diluted with sample dilution or HRP-labeled streptavidin diluted with sample dilution (Sigma, Cat No. 52438) was added, followed by incubating at 37° C. for 1 hour. After washing the plate 4 times with PBST, 50 μl/well of TMB chromogenic substrate (KPL, Cat No. 52-00-03) was added, the plate was incubated at room temperature for 10-20 minutes, followed by adding 50 μl/well of 1M H₂SO₄ to stop the reaction. The absorption value was read at 450 nm with a NOVOStar microplate reader, and the EC50 value of the effect of CD96 antibody on blocking the binding between the antigens and CD155-CHO cells was calculated (see FIG. 2 and Table 16).

Binder | EC50 [1] [nM] | IC50 [2] [nM]
B1 | 0.05 | 
B2 | 0.096 | 
B3 | 0.068 | 
B4 | 0.037 | 0.155
B5 | 0.065 | 0.046
B6 |  | 0.064
B7 | 0.047 | 
B8 | 0.046 | 
B9 | 0.047 | 0.207
B10 |  | 0.398
B11 | 0.047 | 0.135
B12 | 0.051 | 0.134
B13 | 0.075 | 0.133

Source: patent US20200347130A1 (JIANGSU HENGRUI MEDICINE, published 2020)
